In publication PMC10349104:
Several values for one entry are separate records, joined by “and”; a condition that tells them apart may be missing. Identical values can stand only once.

What was measured:
Test in all cases: SPR
[1] = molecular target: EVA-A(21-102) (A. americanum)
[2] = molecular target: EVA-A(L39P) (A. americanum)
[3] = molecular target: EVA-A(DN) (Amblyomma americanum)
[4] = molecular target: EVA-A(C8) (A. americanum)
[5] = molecular target: EVA-A(Y44A) (A. americanum)
[6] = molecular target: EVA-A(C8) (Amblyomma americanum)
[7] = molecular target: EVA-A(1-98) (A. americanum)
[8] = molecular target: EVA-A(L39P) (Amblyomma americanum)
[9] = molecular target: EVA-A(Y44A) (Amblyomma americanum)
[10] = molecular target: EVA-A(DC) (Amblyomma americanum)

Sequence of CCL14 (Q16627 20-93): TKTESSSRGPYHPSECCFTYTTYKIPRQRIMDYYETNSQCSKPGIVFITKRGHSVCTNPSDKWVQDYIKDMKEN
Sequence of CCL5 (P13501 24-91): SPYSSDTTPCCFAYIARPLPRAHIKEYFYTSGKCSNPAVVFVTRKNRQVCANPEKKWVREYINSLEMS
Sequence of CCL7 (P80098 24-99): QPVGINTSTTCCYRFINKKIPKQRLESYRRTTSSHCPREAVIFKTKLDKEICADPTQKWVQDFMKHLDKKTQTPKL
Sequence of CCL27 (Q9Y4X3 25-112): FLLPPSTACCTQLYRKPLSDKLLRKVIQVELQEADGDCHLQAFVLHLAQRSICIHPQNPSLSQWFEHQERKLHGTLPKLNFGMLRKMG
Sequence of CCL26 (Q9Y258 24-94): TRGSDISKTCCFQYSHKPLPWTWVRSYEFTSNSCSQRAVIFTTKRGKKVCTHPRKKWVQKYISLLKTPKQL
Sequence of CCL15 (Q16663 22-113): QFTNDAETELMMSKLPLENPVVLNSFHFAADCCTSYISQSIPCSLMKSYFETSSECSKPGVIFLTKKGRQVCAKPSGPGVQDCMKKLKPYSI
Sequence of CCL2 (P13500 24-99): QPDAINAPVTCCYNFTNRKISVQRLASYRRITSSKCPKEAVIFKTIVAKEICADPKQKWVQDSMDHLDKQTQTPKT
Sequence of CCL8 (P80075 24-99): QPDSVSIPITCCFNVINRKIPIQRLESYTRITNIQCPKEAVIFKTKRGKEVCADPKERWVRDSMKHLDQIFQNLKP
Sequence of CCL19 (Q99731 22-98): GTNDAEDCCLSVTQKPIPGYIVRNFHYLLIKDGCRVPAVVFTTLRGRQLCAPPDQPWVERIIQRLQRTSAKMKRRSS

Row | Substance | Kd [1] [nM] | koff [1] [s⁻¹] | kon [1] [M⁻¹ s⁻¹] | Kd [2] [nM] | koff [2] [s⁻¹] | kon [2] [M⁻¹ s⁻¹] | Kd [4] [nM] | koff [4] [s⁻¹] | kon [4] [M⁻¹ s⁻¹] | Kd [5] [nM] | koff [5] [s⁻¹] | kon [5] [M⁻¹ s⁻¹] | Kd [7] [nM] | koff [7] [s⁻¹] | kon [7] [M⁻¹ s⁻¹] | Kd [8] | koff [8] | kon [8] | Kd [9] | kon [9] | further results
1 | CCL5 (from UniProt P13501 24-91) (ligand) | 2.52 | 0.00195 | 777000 | < 0.1 | < 0.0001 | 1.53e+06 | 16 | 0.0115 | 716000 | 0.23 | 0.00021 | 981000 | 1.03 | 0.00033 | 354000 | 0.0849 nM and 0.0557 nM and 0.0372 nM | 9.49e-05 s⁻¹ and 0.000111 s⁻¹ and 5.52e-05 s⁻¹ | 1.12e+06 M⁻¹ s⁻¹ and 1.98e+06 M⁻¹ s⁻¹ and 1.48e+06 M⁻¹ s⁻¹ | 0.145 nM and 0.294 nM and 0.251 nM | 1.31e+06 M⁻¹ s⁻¹ and 658000 M⁻¹ s⁻¹ and 976000 M⁻¹ s⁻¹ | Kd [3]: 2.42 nM (2×) and 2.72 nM; koff [3]: 0.00208 s⁻¹ and 0.00189 s⁻¹ and 0.00187 s⁻¹; kon [3]: 860000 M⁻¹ s⁻¹ and 783000 M⁻¹ s⁻¹ and 688000 M⁻¹ s⁻¹; Kd [6]: 15.9 nM and 16.3 nM and 16 nM; koff [6]: 0.0113 s⁻¹ and 0.012 s⁻¹ and 0.0111 s⁻¹; kon [6]: 712000 M⁻¹ s⁻¹ and 738000 M⁻¹ s⁻¹ and 697000 M⁻¹ s⁻¹; koff [9]: 0.000189 s⁻¹ and 0.000193 s⁻¹ and 0.000245 s⁻¹; Kd [10]: 0.973 nM and 1.11 nM and 1 nM; koff [10]: 0.000331 s⁻¹ and 0.000413 s⁻¹ and 0.00035 s⁻¹; kon [10]: 340000 M⁻¹ s⁻¹ and 372000 M⁻¹ s⁻¹ and 348000 M⁻¹ s⁻¹
2 | CCL27 (from UniProt Q9Y4X3 25-112) (ligand) | – | – | – | 63.9 | 0.00309 | 45000 | – | – | – | 110 | 0.00639 | 52000 | 41.7 | 0.00409 | 95000 | 48.2 nM and 78.8 nM and 64.7 nM | 0.00218 s⁻¹ and 0.00268 s⁻¹ and 0.00356 s⁻¹ | 45300 M⁻¹ s⁻¹ and 34000 M⁻¹ s⁻¹ and 55000 M⁻¹ s⁻¹ | 59.4 nM and 191 nM and 78.8 nM | 51200 M⁻¹ s⁻¹ and 70200 M⁻¹ s⁻¹ and 34000 M⁻¹ s⁻¹ | Kd [10]: 36.9 nM and 53 nM and 35.3 nM; koff [10]: 0.00409 s⁻¹ and 0.00367 s⁻¹ and 0.0037 s⁻¹; kon [10]: 111000 M⁻¹ s⁻¹ and 69300 M⁻¹ s⁻¹ and 105000 M⁻¹ s⁻¹
3 | CCL19 (from UniProt Q99731 22-98) (ligand) | 1.58 | 0.00053 | 342000 | 1.34 | 0.00036 | 278000 | 16.1 | 0.00345 | 245000 | 0.75 | 0.00036 | 490000 | 0.16 | 3e-05 | 144000 | 1.4 nM and 1 nM and 1.62 nM | 0.000327 s⁻¹ and 0.000349 s⁻¹ and 0.000407 s⁻¹ | 233000 M⁻¹ s⁻¹ and 348000 M⁻¹ s⁻¹ and 252000 M⁻¹ s⁻¹ | 0.676 nM and 0.642 nM and 0.935 nM | 477000 M⁻¹ s⁻¹ and 566000 M⁻¹ s⁻¹ and 428000 M⁻¹ s⁻¹ | Kd [3]: 1.34 nM and 1.49 nM and 1.92 nM; koff [3]: 0.000471 s⁻¹ and 0.000557 s⁻¹ and 0.000576 s⁻¹; kon [3]: 352000 M⁻¹ s⁻¹ and 373000 M⁻¹ s⁻¹ and 301000 M⁻¹ s⁻¹; Kd [6]: 13.2 nM and 15.6 nM and 19.7 nM; koff [9]: 0.000322 s⁻¹ and 0.000363 s⁻¹ and 0.000401 s⁻¹; Kd [10]: 0.209 nM and 0.0874 nM and 0.187 nM; koff [10]: 3.17e-05 s⁻¹ and 1.17e-05 s⁻¹ and 2.75e-05 s⁻¹; kon [10]: 151000 M⁻¹ s⁻¹ and 134000 M⁻¹ s⁻¹ and 147000 M⁻¹ s⁻¹
4 | CCL7 (from UniProt P80098 24-99) (ligand) | – | – | – | – | – | – | 765 | – | – | – | – | – | 1010 | – | – | – | – | – | 4.63 nM and 5.4 nM and 4.4 nM | – | –
5 | CCL8 (from UniProt P80075 24-99) (ligand) | 169 | 0.0344 | 112000 | 2.59 | 0.00218 | 971000 | – | – | – | 3.62 | 0.00156 | 474000 | 163 | 0.0344 | 173000 | 2.73 nM and 2.16 nM and 2.89 nM | 0.00242 s⁻¹ and 0.00205 s⁻¹ and 0.00312 s⁻¹ | 884000 M⁻¹ s⁻¹ and 949000 M⁻¹ s⁻¹ and 1.08e+06 M⁻¹ s⁻¹ | 4.46 nM and 3.95 nM and 2.44 nM | 307000 M⁻¹ s⁻¹ and 378000 M⁻¹ s⁻¹ and 737000 M⁻¹ s⁻¹ | Kd [3]: 328 nM and 146 nM and 34.1 nM; koff [9]: 0.00137 s⁻¹ and 0.0015 s⁻¹ and 0.0018 s⁻¹; Kd [10]: 188 nM and 89.1 nM and 212 nM
6 | CCL16(L19A) (from UniProt O15467 24-120) (ligand) | – | – | – | 1.53 | 0.00085 | 560000 | – | – | – | 15.9 | 0.00151 | 107000 | – | – | – | 1.54 nM and 1.52 nM (2×) | 0.000757 s⁻¹ and 0.000893 s⁻¹ and 0.000913 s⁻¹ | 492000 M⁻¹ s⁻¹ and 588000 M⁻¹ s⁻¹ and 599000 M⁻¹ s⁻¹ | 25.2 nM and 12.3 nM and 10.2 nM | 68100 M⁻¹ s⁻¹ and 109000 M⁻¹ s⁻¹ and 144000 M⁻¹ s⁻¹ | koff [9]: 0.00171 s⁻¹ and 0.00134 s⁻¹ and 0.00147 s⁻¹
7 | CCL15 (from UniProt Q16663 22-113) (ligand) | 34 | 0.00214 | 63000 | 26.6 | 0.00467 | 102000 | 577 | 0.0127 | 22000 | 161 | 0.0117 | 79000 | 31.7 | 0.00162 | 53000 | – | – | – | – | – | –
8 | CCL26 (from UniProt Q9Y258 24-94) (ligand) | 9.24 | 0.00049 | 53000 | 0.19 | 0.00078 | 2.63e+06 | 70.9 | 0.00099 | 14000 | 2.94 | 0.00101 | 381000 | 1.89 | 0.00048 | 357000 | 0.183 nM and 0.176 nM and 0.197 nM | 0.000504 s⁻¹ and 0.000271 s⁻¹ and 0.000714 s⁻¹ | 2.75e+06 M⁻¹ s⁻¹ and 1.53e+06 M⁻¹ s⁻¹ and 3.62e+06 M⁻¹ s⁻¹ | 3.9 nM and 3.21 nM and 1.71 nM | 348000 M⁻¹ s⁻¹ and 205000 M⁻¹ s⁻¹ and 590000 M⁻¹ s⁻¹ | Kd [3]: 9.99 nM and 8.95 nM and 8.79 nM; koff [3]: 0.000506 s⁻¹ and 0.000395 s⁻¹ and 0.000556 s⁻¹; kon [3]: 50600 M⁻¹ s⁻¹ and 44200 M⁻¹ s⁻¹ and 63300 M⁻¹ s⁻¹; Kd [6]: 56.4 nM and 69.6 nM and 86.6 nM; koff [6]: 0.00101 s⁻¹ and 0.000925 s⁻¹ and 0.00104 s⁻¹; kon [6]: 17900 M⁻¹ s⁻¹ and 13300 M⁻¹ s⁻¹ and 12000 M⁻¹ s⁻¹; koff [9]: 0.00136 s⁻¹ and 0.000659 s⁻¹ and 0.00101 s⁻¹; Kd [10]: 1.25 nM and 1.65 nM and 2.78 nM; koff [10]: 0.000481 s⁻¹ and 0.000673 s⁻¹ and 0.000777 s⁻¹; kon [10]: 384000 M⁻¹ s⁻¹ and 407000 M⁻¹ s⁻¹ and 280000 M⁻¹ s⁻¹
9 | CCL14 (from UniProt Q16627 20-93) (ligand) | 0.11 | 8e-05 | 703000 | 0.04 | 0.00013 | 2.41e+06 | 1.3 | 0.00048 | 386000 | 0.11 | 5e-05 | 481000 | < 0.1 | < 0.0001 | 239000 | – | – | – | – | – | –
10 | CCL2 (from UniProt P13500 24-99) (ligand) | – | – | – | 24.9 | 0.036 | 329000 | – | – | – | 123 | 0.032 | 291000 | – | – | – | 25.6 nM and 20.7 nM and 28.4 nM | 0.00858 s⁻¹ and 0.00729 s⁻¹ and 0.00847 s⁻¹ | 335000 M⁻¹ s⁻¹ and 353000 M⁻¹ s⁻¹ and 298000 M⁻¹ s⁻¹ | 109 nM and 191 nM and 70 nM | – | –
